Measured values taken from the RNAGym collection of RNA variant scans (doi:10.7554/elife.80360).

B1: CPEB3 Ribozyme (parent)
chain: GGGGGCCACAGCAGAAGCGUUCACGUCGCGGCCCCUGUCAGAUUCUGGUGAAUCUGCGAAUUCUGCUGU

Variants of: B1
Assay: self-cleavage, relative activity (ratio to wild type); higher = more cleavage; co-transcriptional

First: G28C A60U
Second: G28C A60G
The self-cleavage of the first is higher: 0.19 for the first, 0.168 for the second.

Going from C27U U53C to G28C U44A, the self-cleavage falls from 0.169 to 0.157.

Compared with G28C U44C, G28A U69A is higher in self-cleavage: 0.223 for the first, 0.342 for the second.

Going from G28A U69C to G28A U69G, the self-cleavage falls from 0.412 to 0.357.

Going from G28C G47A to G28C G47C, the self-cleavage rises from 0.187 to 0.258.

Going from G28C G47U to G28C A42U, the self-cleavage rises from 0.167 to 0.25.

Compared with G28C G58C, G28A A42C is higher in self-cleavage: 0.158 for the first, 0.177 for the second.

First: G28A A42G
Second: G28A A42U
The self-cleavage of the first is lower: 0.131 for the first, 0.137 for the second.

Compared with G28C A40G, G28C A40C is higher in self-cleavage: 0.211 for the first, 0.218 for the second.

Going from G28C A40U to G28A C35U, the self-cleavage falls from 0.215 to 0.203.

Compared with G28A C35A, G28C C33U is lower in self-cleavage: 0.17 for the first, 0.165 for the second.

Going from G28C C33A to G28A C66G, the self-cleavage rises from 0.115 to 0.196.

Compared with G28A G50U, G28A G50A is higher in self-cleavage: 0.159 for the first, 0.195 for the second.

First: G28A U43G
Second: G28A U43A
The self-cleavage of the first is lower: 0.0959 for the first, 0.156 for the second.

Compared with G28A U43C, G28A G68C is higher in self-cleavage: 0.219 for the first, 0.268 for the second.

Compared with G28A G68U, G28C U38C is higher in self-cleavage: 0.195 for the first, 0.199 for the second.

Going from G28A G31C to C27U U69G, the self-cleavage rises from 0.208 to 0.457.

Going from C27U U69C to G28C G48U, the self-cleavage falls from 0.769 to 0.202.

Going from G28C G48A to G28C G37C, the self-cleavage falls from 0.195 to 0.186.

First: G28C G37U
Second: G28C G37A
The self-cleavage of the first is higher: 0.129 for the first, 0.117 for the second.

Compared with G28C C57G, G28C C57A is higher in self-cleavage: 0.191 for the first, 0.207 for the second.

Going from G28C C57U to C27U U62A, the self-cleavage falls from 0.23 to 0.217.

First: G28C C29G
Second: G28C C29A
The self-cleavage of the first is higher: 0.153 for the first, 0.144 for the second.

Compared with G28C C29U, G28C U43G is higher in self-cleavage: 0.137 for the first, 0.255 for the second.

Compared with G28C U43C, G28C U43A is lower in self-cleavage: 0.141 for the first, 0.109 for the second.

Going from G28A A40G to G28A A40U, the self-cleavage falls from 0.214 to 0.167.

First: G28A U61C
Second: G28A U61A
The self-cleavage of the first is lower: 0.137 for the first, 0.193 for the second.

Compared with C27U U55C, C27U U55A is higher in self-cleavage: 0.143 for the first, 0.184 for the second.

First: G28A U46G
Second: G28A U46A
The self-cleavage of the first is lower: 0.146 for the first, 0.184 for the second.

Compared with G28A U46C, G28A G47U is higher in self-cleavage: 0.192 for the first, 0.262 for the second.

Going from G28A G47C to C27U U44G, the self-cleavage falls from 0.212 to 0.198.

Compared with G28A G30C, G28A C54G is higher in self-cleavage: 0.167 for the first, 0.177 for the second.

First: G28A C54U
Second: G28C A52U
The self-cleavage of the first is lower: 0.194 for the first, 0.197 for the second.

Going from G28C A59G to G28C A59U, the self-cleavage rises from 0.132 to 0.189.

Going from G28C A59C to G28A G41C, the self-cleavage rises from 0.16 to 0.177.

First: G28C G56U
Second: G28A U36C
The self-cleavage of the first is higher: 0.17 for the first, 0.128 for the second.

Going from G28A U36G to G28A A51C, the self-cleavage rises from 0.133 to 0.234.

First: G28A A51U
Second: G28C G30A
The self-cleavage of the first is lower: 0.183 for the first, 0.22 for the second.

Going from G28C G30C to G28C C45G, the self-cleavage rises from 0.143 to 0.208.

Compared with G28A U49G, G28A U49C is higher in self-cleavage: 0.22 for the first, 0.238 for the second.

Compared with G28A U67C, G28A U67G is lower in self-cleavage: 0.307 for the first, 0.232 for the second.

Going from G28A U67A to G28C G68A, the self-cleavage falls from 0.202 to 0.164.

Compared with G28C G68U, C27U U49G is higher in self-cleavage: 0.221 for the first, 0.421 for the second.

First: G28A U64A
Second: G28A A59U
The self-cleavage of the first is higher: 0.245 for the first, 0.198 for the second.

Going from G28A C34A to G28A G65C, the self-cleavage falls from 0.218 to 0.172.

Going from G28A A52G to G28C C32G, the self-cleavage falls from 0.234 to 0.168.

First: G28C C32A
Second: G28C C32U
The self-cleavage of the first is lower: 0.181 for the first, 0.23 for the second.

Going from C27U U61C to G28A C45G, the self-cleavage rises from 0.14 to 0.196.

Compared with G28A C45A, G28A C63G is lower in self-cleavage: 0.184 for the first, 0.178 for the second.

Compared with G28A C63A, G28C U36A is lower in self-cleavage: 0.182 for the first, 0.162 for the second.

Compared with G28C U36G, G28C U36C is lower in self-cleavage: 0.189 for the first, 0.147 for the second.

Compared with G28A G58U, G28A G58A is lower in self-cleavage: 0.2 for the first, 0.189 for the second.

Compared with G28A G58C, G28A C57A is lower in self-cleavage: 0.231 for the first, 0.136 for the second.

Compared with G28A C57G, G28A C57U is lower in self-cleavage: 0.17 for the first, 0.137 for the second.

First: C27U U46G
Second: C27U U46A
The self-cleavage of the first is lower: 0.372 for the first, 0.567 for the second.

First: C27U U46C
Second: G28C G65C
The self-cleavage of the first is higher: 0.301 for the first, 0.19 for the second.

First: G28C G65A
Second: G28A C39A
The self-cleavage of the first is lower: 0.161 for the first, 0.198 for the second.

Going from G28A C39U to C27U U64G, the self-cleavage rises from 0.17 to 0.197.

First: C27U U64C
Second: G28A U38C
The self-cleavage of the first is higher: 0.245 for the first, 0.196 for the second.

Going from G28A U38G to G28C C54G, the self-cleavage rises from 0.147 to 0.155.

First: G28C C54U
Second: G28C C63U
The self-cleavage of the first is higher: 0.218 for the first, 0.192 for the second.

First: G28A G56U
Second: G28A G56A
The self-cleavage of the first is higher: 0.167 for the first, 0.164 for the second.

First: G28A G56C
Second: G28A U53C
The self-cleavage of the first is higher: 0.235 for the first, 0.154 for the second.

Going from G28A U53G to G28C G31U, the self-cleavage rises from 0.203 to 0.21.

Going from G28C G31C to G28C G31A, the self-cleavage falls from 0.172 to 0.139.

Going from G28A G37C to G28A G37U, the self-cleavage falls from 0.193 to 0.186.

Compared with G28A G37A, G28C C35U is higher in self-cleavage: 0.157 for the first, 0.178 for the second.

Compared with G28C C35A, G28A C33A is higher in self-cleavage: 0.176 for the first, 0.18 for the second.

Compared with G28A C33G, G28A C33U is higher in self-cleavage: 0.195 for the first, 0.22 for the second.

Going from G28A C29A to G28A C29G, the self-cleavage falls from 0.143 to 0.117.

Compared with G28A C29U, G28C G41A is higher in self-cleavage: 0.177 for the first, 0.201 for the second.

First: G28C G41C
Second: G28C G41U
The self-cleavage of the first is higher: 0.178 for the first, 0.152 for the second.

Compared with G28C C39G, G28C C34U is lower in self-cleavage: 0.198 for the first, 0.136 for the second.

First: G28C C34G
Second: G28A U55C
The self-cleavage of the first is higher: 0.245 for the first, 0.214 for the second.

First: G28A A60G
Second: G28A A60C
The self-cleavage of the first is lower: 0.168 for the first, 0.197 for the second.

First: G28A A60U
Second: C27U U67C
The self-cleavage of the first is lower: 0.199 for the first, 0.332 for the second.

Going from C27U U67A to G28C A51C, the self-cleavage falls from 0.276 to 0.119.

First: G28C A51G
Second: G28C A51U
The self-cleavage of the first is higher: 0.247 for the first, 0.165 for the second.

First: G28C C66A
Second: G28C C66G
The self-cleavage of the first is higher: 0.163 for the first, 0.141 for the second.

Compared with G28C C66U, G28A U62C is higher in self-cleavage: 0.211 for the first, 0.218 for the second.

First: G28A U62A
Second: G28A U44C
The self-cleavage of the first is higher: 0.203 for the first, 0.176 for the second.

Compared with G28A U44G, G28A U44A is higher in self-cleavage: 0.136 for the first, 0.195 for the second.

Compared with G28A C32A, G28A C32U is lower in self-cleavage: 0.19 for the first, 0.184 for the second.

Variant G28A C32G has a self-cleavage of 0.139.
